Experimental data reported in the nanobody polyreactivity screen of Harvey et al. (2022).

test: yeast display, Sf9 membrane polyspecificity reagent, FACS + sequencing; frameworks hold sequencing errors
Procedure, shortened: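 Galactose-induced (36–48 hours) yeast carrying a synthetic nanobody display library were exposed to 10% biotinylated, detergent-solubilized Sf9 membrane reagent at 4 °C for 1 hour. FACS followed streptavidin microbead enrichment, using low and high (top ~1%) gates for expression (anti-HA) and reagent binding (streptavidin). Colony PCR, MiSeq 2 × 250 sequencing and CDR-length filtering followed. Labels for polyreactivity reflect the gate of origin.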

| Sequence | polyreactivity (PSR sort gate) |
| --- | --- |
| QVQLVESGGGLVQAGGSLRLSCAASGLIFSRNAMGWYRQAPGKERELVAAISGGGGSTYYADSVKGRFTISRDNAKNTVYLQMNSLKPEATAVYYCAAKGYWWLTPWIATYDYWGQGTQVTVSS | high polyreactivity |
| QVQLVESGGGLVQAGGSLRLSCAASGLIFSRYAMGWYRQAPGKERELVAAITWRGGSTYYADSVKGRFTISRDNAKNTVYLQMNSLKPEDTAVYYCNADGLWFQGYNSWGQGTQVTVSS | low polyreactivity |
| QVQLVESGGGLVQAGGSLRLSCAASGLIFSVYAMGWYRKAPGKERELVAAITGGGSTHYADSVKGRFTISRDNAKNTVYLQMNSLKPEDTAVYYCATRSYSWLHYWTSRGDEDYWGQGTQVTVSS | high polyreactivity |
| QVQLVESGGGLVQAGGSLRLSCAASGLIFSVYAMGWYRQAPGKERELVAAISWSGSTYYADSVKGRFTISRDNAKNTVYLQMNSLKPEDTAVDYCAAEYDYDHFYWMDYWGQGTQVTVSS | high polyreactivity |
| QVQLVESGGGLVQAGGSLRLSCAASGLIFSVYAMGWYRQAPGKVRELVAAITGSGGRTYYADSVKGRFTISRDNAKNYVYLQMNSLKPEDTAVYYCAATVSSYPYYRYYSWGQGTQVTVSS | high polyreactivity |
| QVQLVESGGGLVQAGGSLRLSCAASGLIFSWYDMGWYRQAPGKERELVAAITTDGDDTYYADSVKGRFTISRDNAKNTVYLQMNSLKPEDTAVYYCAADSELAIRYPDRDYDSWGQGTQVTVSS | low polyreactivity |
| QVQLVESGGGLVQAGGSLRLSCAASGLIFSYNAMGWYRQAHGKETELVATIRRVGSTNYADSVKGRFTISRDNAKNTVYLQMNSLQPDDTAVYYCAAVYVRIGTRYGYWGQGTQVTVSS | high polyreactivity |
| QVQLVESGGGLVQAGGSLRLSCAASGLIFSYYTMGWYRQAPGKERELVAAISSAGGSTYYADSVKGRFTISRDNAKNTVYLQMNSLKPEDTAVYYCAARYSGRPYGPPGYLWKDYYWGQGTQVTVSS | high polyreactivity |
| QVQLVESGGGLVQAGGSLRLSCAASGLIFTDYDMGWYRQAPGKERELVAAISTSGGSTYYADSVKGRFTISRDNAKNPVYLQMNSLKPAETAVYYCAAEYVYPYWNGFDYWGQGTQVTVSS | low polyreactivity |
| QVQLVESGGGLVQAGGSLRLSCAASGLIFTGYVMGWYRQAPGKERELVAVIRSGDSTYYADSVKGRFTISRDNAKNTVYLQMNSLKPEDTAVYYCAKYDTGGRAHDYWGQGTQVTVSS | low polyreactivity |
| QVQLVESGGGLVQAGGSLRLSCAASGLIFTVNAMGWYRQAPGKDRELVAAISGGDSTNYADSVKGRFTISRDNAKNTVYLQMNSLKPEDTAVYYCAVRGRAQYTSRRYGYWGQGTQVTVSS | high polyreactivity |
| QVQLVESGGGLVQAGGSLRLSCAASGLIFTWNAMGWYRQATGKERELVAAISTGGSTSYADSVKGRFTISRDNAKNTVYLQMNSLKPEDTAVYYCARDSSIWSHGSWYDYWGQGTQVTVSS | low polyreactivity |
| QVQLVESGGGLVQAGGSLRLSCAASGLIFTYYAMGWYRQAPGKERELVAAISGRGGSTYYADSVKGRFTISRDNAKNTVYLQMNSLKPEDTAVYYCAAVRWAGYVSDYGYWGQGTQVTVSS | high polyreactivity |
| QVQLVESGGGLVQAGGSLRLSCAASGLIFTYYAMGWYRQAPGKEREMVAAISSSGVNTYYADSVKGRFTISRDNAKNTVYLQMNSLKPEYTAVYYCAAELQPSPVGGIIQYGFDYWGQGTQVTVSS | low polyreactivity |
| QVQLVESGGGLVQAGGSLRLSCAASGLIFVGNAMGWYRQAPGKERELVAAISASTDNTYYADSVKGRFTISRDNAKNTVYLQMISLKPEDTAVYYCNAEQSRNSGKHDYWGQGTQVTVSS | low polyreactivity |
| QVQLVESGGGLVQAGGSLRLSCAASGLIFVINARGWYRQAPGKERELVAAIDYSGGSTYYADSVKGRFTISRDNAKNTVYLQMNSLKPEDTAVYYCAASKIGYWGDYFRYYYWGQGTQVTVSS | low polyreactivity |
| QVQLVESGGGLVQAGGSLRLSCAASGLIFVNAMGWYRQAPGKEREFVAAITYSTGSTYYADSVKGRFTISRDIAKNTVYLQMNSLKPEDTAVYYCAKDRSGHGTERDYWGQGTQVTVSS | low polyreactivity |
| QVQLVESGGGLVQAGGSLRLSCAASGLIFVPYAMGWYRQAPGKERELVATISARGASTYYADSVKGRFTISRDNAKNTVYLQMNSLKPEDTAVYYCATRNYGRASYDYWGQGTQVTVSS | high polyreactivity |
| QVQLVESGGGLVQAGGSLRLSCAASGLIFVSNAMGWYRQAPGKERELVAAISWSGSRTYYADSVKGRFTISRENAKNTVYLQMNSLKPEDTAVYYCNAVRRGLPVVGAYDYWGQGTQVTVSS | high polyreactivity |
| QVQLVESGGGLVQAGGSLRLSCAASGLIFVSYAMGWYRQAPGKERELVAAISSGGSTYYADSVKGRFTISRDNAKNTVYLQINSLKPEDTAVYYCAAEYVFRGYVGYDYWGQGTQVTVSS | low polyreactivity |

| Sequence | polyreactivity (PSR sort gate) |
| --- | --- |
| QVQLVESGGGLVQAGGSLRLSCAASGLIFVSYAMGWYRQAPGKERELVASITYSGGGTYYADSVKGRFTISRDYAKNTVYLQMNSLKPEDNAVYYCNADVCWCYSVYREYCMDYWGQGTQVTVSS | low polyreactivity |
| QVQLVESGGGLVQAGGSLRLSCAASGLIFVVYAMGWYRQAPGKERELVAVISSDGGTYYADSVKGRFTISRDNAKNTVYLQMNSLKPEDTAVYYCAALGYPNARTSRISYFRYDYWGQGTQVTVSS | high polyreactivity |
| QVQLVESGGGLVQAGGSLRLSCAASGLIFVWYDMGWYRQAPGKERELVATISSDGITNYADSVKGLFTISRDNAKNTVYLQMNSLKPEDTAVSYCNAGPDDYVGYWGKYDYWGQGTQVTVSS | low polyreactivity |
| QVQLVESGGGLVQAGGSLRLSCAASGLIFWHYAMGWYRQAPGKERELVAAISRRGGSTYYADSVKGRFTISRDNAKNTVYLQMNSLKPEDTAVYYCAADVWGSSAQRGWRKDYYWGQGTQVTVSS | high polyreactivity |
| QVQLVESGGGLVQAGGSLRLSCAASGLIFYAKAMGWYRQAPGKEREFVAAITYRGGSTYYADSVKGRFTISRDKAKNTVYLQMNCLKPEATAVYYCATVTDRYPYIRRYHFPYYYWGQGTQVTVSS | high polyreactivity |
| QVQLVESGGGLVQAGGSLRLSCAASGLIFYAYAMGWYRQAPGKERELVAGIWIDDSTYYADSVKGRFTISRDNAKNTVYLQMNSLKPEDTAVYYCNKRVRSYYLYRGDYWGQGTQVTVSS | low polyreactivity |
| QVQLVESGGGLVQAGGSLRLSCAASGLIFYDNMGWSRQAPGKERELVAAISSSGGSTSYADSVKGRFTISRDNAKNTVYLQMNSLKPADTAVYYCAADSYPAYLGFVGFDYWGQGTQVTVSS | low polyreactivity |
| QVQLVESGGGLVQAGGSLRLSCAASGLIFYDNMGWYRQAPGKERELVAAISSSGGSTSYADSVKGRFTISRDNAKNTVYLQMISLKPEDTAVYYCAADSSPAFLGFVGFEYWGQGTEVTVSS | low polyreactivity |
| QVQLVESGGGLVQAGGSLRLSCAASGLIFYDNMGWYRQAPGKERELVAAISSSGGSTSYADSVKGRFTISRDNAKNTVYLQMNSLKPVDTAVYYCAADSYPAYLGFVGFDYWGQGTQVTVSS | low polyreactivity |
| QVQLVESGGGLVQAGGSLRLSCAASGLIFYGNAMGWYRQEPGKERELVAAISWSGGNTSYADSVKGRFTISRDNAKNTVYLQMNSLKPEVTAVYYCNADSLPSVERYGYWGQGTQVTVSS | low polyreactivity |
| QVQLVESGGGLVQAGGSLRLSCAASGLIFYGYVMGWYRHAPGKERELVAGISRNYGSTYYADSVKGRFTISRDNAKHTVYLQMNSLKPEDTAVYYCAALTFEAWAGEDYWGQGTQVTVTS | low polyreactivity |
| QVQLVESGGGLVQAGGSLRLSCAASGLIFYKYAMGWYRQAPGKERELVAAITRGGGSTSYADSVKGRFTISRDNAKNTVYLQMNCLKPEDTAVYYCNAAPYTRALQGEFDYWGQGTQVTVSS | high polyreactivity |
| QVQLVESGGGLVQAGGSLRLSCAASGLIFYKYAMGWYRQAPGKERELVASISTGGGSTYYADSVKGRFTISRDNAKNTVYLQMNSLKPEDTAVYYCAARWWSRFRGSHSLYDYWGQGTQVTVSS | high polyreactivity |
| QVQLVESGGGLVQAGGSLRLSCAASGLIFYLYAMGWYRQAPGKEREFVAGINWSGGNTYADSVKGRFTISRDNAKNTVYLQLNSLKPEDTAVYYCAADSLIYTHPYQYDYWGQGTQVTVSS | low polyreactivity |
| QVQLVESGGGLVQAGGSLRLSCAASGLIFYLYTMGWYRQAPGKERELVAAISRSGTITYYADSVKGRFTISRDNAKNSVYLQMNSLKPEDTAVYYCAATYTYKIGTRYDYWGQGTQVNVSS | high polyreactivity |
| QVQLVESGGGLVQAGGSLRLSCAASGLIFYQYAMGWYRQAPGKESELVAAISRSGGRTNYADSVKGRFTISRDNAKNTVYLQMNSLKPEDTAVYYCNAVHYFLYGYYSWGQGTQVSVSS | high polyreactivity |
| QVQLVESGGGLVQAGGSLRLSCAASGLIFYRNAMGWYRQAPGKERELVAAIRFSTGSTYYADSVKGRFTISRDNAKNSVYLQMNSLKPEDSAVYCCAAALPGYGDYYYWGQGTQVTVSS | high polyreactivity |
| QVQLVESGGGLVQAGGSLRLSCAASGLIFYRYAMGWYRQAPGKERELVAAISSSGVSTYYADSVKGRFTISRDNAKNTVYLQMNSLIPEDTAVYYCAADVGSRSYSYDYWGQGTQVTVSS | low polyreactivity |
| QVQLVESGGGLVQAGGSLRLSCAASGLIFYRYTMGWYRQAPGKERELVAAISWSGGRTYYADSVKGRFTISRDNAKNTVYLQMNSLKPEDTAVYYCNAVYYYTRASVPYDYWGQGTQVTVSS | high polyreactivity |
| QVQLVESGGGLVQAGGSLRLSCAASGLIFYVYARGWYRQAPGKERELVAAIRYRGGTTHYADSVKGRFTISRDNAKNTVYLQMNSLKPEDTAVYYCAADGYVYRSGRRYDYWGQGTQVTVSS | high polyreactivity |
